Source: US8728980B2, “Peptide microarray and method of use” (The Regents of the University of California, priority 2011, dated 2014)
Non-standard residues stand in square brackets, D forms with d. Primed or numbered codes have the meaning given here. No end group written: not given here. Me3 = trimethylation of the lysine side chain; Me3(3) = trimethyl (trimethylated lysine); Lys(Me3) = C[N+](C)(C)CCCC[C@H](N)C(=O)O

target: T1, Polycomb protein chromodomain (Drosophila melanogaster, UniProt P26017); experiment: Peptide microarray binding of GST-tagged Polycomb chromodomain; design: dose or concentration left out as unconfirmed; details: Binder if at least two of three spots pass p-value cutoff 0.001 from background
T1 construct: The chromodomain (a.a. 1-90) of Polycomb protein was expressed as GST-tagged fusion protein; made in house
T1 sequence (P26017 1-90): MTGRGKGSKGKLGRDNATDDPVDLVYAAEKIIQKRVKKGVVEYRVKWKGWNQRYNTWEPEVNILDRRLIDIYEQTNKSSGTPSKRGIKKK
Source text: There are a total of 46 histone peptide sequences (9 a.a. long) with a single lysine-trimethylation site which are conserved between the human and fruit fly H2, H3 and H4 proteins (Table II). These were screened for Polycomb protein chromodomain binding by peptide microarray. Each peptide sequence was screened as triplets, and the fluorescence intensity was quantified with background subtraction individually for each spot from the microarray images by ImageJ^9 and the whole data set was fit to a mixed Gaussian distribution model (FIG. 8, Table III).
Twelve out of the 46 sequences were identified as positive binders under these criteria. Ten of these microarray-identified binders also yielded high mutation matrix score in an independent prediction (Table IV).
The chromodomain (a.a. 1-90) of Polycomb protein was expressed as GST-tagged fusion protein and purified as described in [65]. The purity of the protein was examined by SDS-PAGE electrophoresis followed by both Coomassie staining and western blot using an Anti-GST-HRP conjugate (Santa Cruz Biotechnology). The concentration of purified protein was determined by BCA assay (Amresco). A total of 46 trimethylated histone peptides were synthesized by Sigma Aldrich (desalted, mass spectrometry checked). The peptides were then printed as triplets onto glass slides (ArrayIt), together with a Cy3 marker and an anti-GST (mouse monoclonal) antibody (Thermo) as references.
The peptide microarray was rinsed with TBST buffer (25 mM Tris, 125 mM NaCl, 0.05% Tween-20, pH 8) followed by blocking with 5% non-fat milk in TBST (room temperature 1 hour or 4° C. overnight). The slide was then incubated at 4° C. with Polycomb-GST fusion protein at a final concentration of […] in 5% non-fat milk/TBST for 6 hours. After washing three times for 10 minutes each with TBST, the slide was incubated with an anti-GST mouse monoclonal IgG antibody (Thermo) at a final concentration of 1 μg/mL in 5% non-fat milk/TBST and shaken gently for 1 hour at room temperature. A secondary anti-mouse IgG Dylight-488 conjugated antibody (Thermo) was added to a final concentration of 0.1 μg/mL after three more cycles of 10 minutes washing with TBST. The slide was shaken for 1 hr at room temperature and washed three times with TBST.
The dried microarray slides were scanned using a Hamamatsu NanoZoomer 2.0HT Slide Scanning System (Neuroscience Light Microscopy Facility, UCSD). Data quantification were processed using the microarray processing software ImageJ^9, where the fluorescent intensity of a microarray spot was defined as its own intensity minus the background intensity around it on the scanned image.

Row | Sequence | Array Verification
1 | APATGGVKK (not fully specified (residue 8); also: trimethylated lysine, site not given here) [9-residue histone peptide, H3_DROME, trimethylated lysine site 36] | NonBinder
2 | GNAARDNKK (also: trimethylated Lys, site not given here) | NonBinder
3 | PSTGGVKKP (also: trimethylated Lys, site not given here) [9-residue histone peptide, H33_DROME, trimethylated lysine site 37] | NonBinder
4 | REIAQDFKT (REIAQDFK(Me3(3))T) [9-residue histone peptide, H3_DROME, trimethylated lysine site 79] | NonBinder
5 | PDTGISSKA (PDTGISSK(Me3(3))A) | NonBinder
6 | IYIYKVLKQ (also: trimethylated Lys, site not given here) | NonBinder
7 | IQAVLLPKK (not fully specified (residue 8); also: trimethylated lysine, site not given here) | Binder
8 | GGAKRHRKV (also: trimethylated lysine, site not given here) [9-residue histone peptide, H4_DROME, trimethylated lysine site 20] | Binder
9 | ASKDLKVKR (not fully specified (residue 8); also: trimethylated lysine, site not given here) | Binder
10 | PATGGVKKP (not fully specified (residue 8); also: trimethylated lysine, site not given here) [9-residue histone peptide, H3_DROME, trimethylated lysine site 37] | NonBinder
11 | SRLAHYNKR (SRLAHYNK(Me3(3))R) | NonBinder
12 | MAGGKAGKD (not fully specified (residue 8); also: trimethylated lysine, site not given here) | NonBinder
13 | GRIHRHLKS (GRIHRHLK(Me3(3))S) | Binder
14 | GNASKDLKV (not fully specified (residue 8); also: trimethylated lysine, site not given here) | NonBinder
15 | KGGKGLGKG (not fully specified (residue 8); also: trimethylated lysine, site not given here) [9-residue histone peptide, H4_DROME, trimethylated lysine site 12] | NonBinder
16 | QAVLLPKKT (QAVLLPKK(Me3)T) | NonBinder
17 | ELAGNASKD (ELAGNASK(Me3(3))D) | NonBinder
18 | NLCAIHAKR (NLCAIHAK(Me3(3))R) [9-residue histone peptide, H3_DROME, trimethylated lysine site 115] | NonBinder
19 | APSTGGVKK (also: trimethylated Lys, site not given here) [9-residue histone peptide, H33_DROME, trimethylated lysine site 36] | NonBinder
20 | REIRRYQKS (REIRRYQK(Me3(3))S) [9-residue histone peptide, H3_DROME, trimethylated lysine site 56] | Binder
21 | LLPGELAKH (LLPGELAK(Me3(3))H) | NonBinder
22 | RNDEELNKL (RNDEELNK(Me3(3))L) | NonBinder
23 | KAGKDSGKA (not fully specified (residue 8); also: trimethylated lysine, site not given here) | NonBinder

Row | Sequence | Array Verification
24 | GVIPHIHKS (GVIPHIHK(Me3(3))S) | NonBinder
25 | TGGKAPRKQ (also: trimethylated Lys, site not given here) [9-residue histone peptide, H3_DROME, trimethylated lysine site 18] | NonBinder
26 | NAARDNKKT (also: trimethylated Lys, site not given here) | NonBinder
27 | DSGKAKAKA (not fully specified (residue 8); also: trimethylated lysine, site not given here) | Binder
28 | EELDSLIKA (EELDSLI[Lys(Me3)]A) | NonBinder
29 | HAVSEGTKA (HAVSEGTK(Me3(3))A) | NonBinder
30 | RIHRLLRKG (RIHRLLRK(Me3(3))G) | Binder
31 | MDVVYALKR (MDVVYALK(Me3(3))R) [9-residue histone peptide, H4_DROME, trimethylated lysine site 91] | Binder
32 | LARRGGVKR (LARRGGVK(Me3(3))R) [9-residue histone peptide, H4_DROME, trimethylated lysine site 44] | NonBinder
33 | KRVTIMPKD (not fully specified (residue 8); also: trimethylated lysine, site not given here) [9-residue histone peptide, H3_DROME, trimethylated lysine site 122] | NonBinder
34 | GLGKGGAKR [9-residue histone peptide, H4_DROME, trimethylated lysine site 16] | NonBinder
35 | PRKQLATKA (PRKQLATK(Me3)A) [9-residue histone peptide, H3_DROME, trimethylated lysine site 23] | Binder
36 | YTEHAKRKT (YTEHAKRK(Me3)T) [9-residue histone peptide, H4_DROME, trimethylated lysine site 79] | NonBinder
37 | VTYTEHAKR (VTYTEHAK(Me3(3))R) [9-residue histone peptide, H4_DROME, trimethylated lysine site 77] | NonBinder
38 | GKDSGKAKA (not fully specified (residue 8); also: trimethylated lysine, site not given here) | NonBinder
39 | STELLIRKL (STELLIRK(Me3(3))L) [9-residue histone peptide, H3_DROME, trimethylated lysine site 64] | NonBinder
40 | DNIQGITKP (DNIQGIT[Lys(Me3)]P) [9-residue histone peptide, H4_DROME, trimethylated lysine site 31] | NonBinder
41 | EETRGVLKV (EETRGVL[Lys(Me3)]V) [9-residue histone peptide, H4_DROME, trimethylated lysine site 59] | NonBinder
42 | IHKSLIGKK (not fully specified (residue 8); also: trimethylated lysine, site not given here) | NonBinder
43 | ARKSTGGKA (also: trimethylated Lys, site not given here) [9-residue histone peptide, H3_DROME, trimethylated lysine site 14] | NonBinder
44 | EGTKAVTKY (also: trimethylated Lys, site not given here) | Binder
45 | RTKQTARKS (also: trimethylated lysine, site not given here) [9-residue histone peptide, H3_DROME, trimethylated lysine site 9] | Binder
